From paper PMC2628593 (Molecular cell, 2008)

Molecular target: the molecule itself
Experiment: SEC + other: dynamic light scattering

B1: Skap55 (Src-kinase-associated phosphoprotein of 55 kDa) (natural protein, UniProt Q86WV1 1-359, looked up)
chain: MQAAALPEEIRWLLEDAEEFLAEGLRNENLSAVARDHRDHILRGFQQIKARYYWDFQPQGGDIGQDSSDDNHSGTLGLSLTSDAPFLSDYQDEGMEDIVKGAQELDNVIKQGYLEKKSKDHSFFGSEWQKRWCVVSRGLFYYYANEKSKQPKGTFLIKGYGVRMAPHLRRDSKKESCFELTSQDRRSYEFTATSPAEARDWVDQISFLLKDLSSLTIPYEEDEEEEEKEETYDDIDGFDSPSCGSQCRPTILPGSVGIKEPTEEKEEEDIYEVLPDEEHDLEEDESGTRRKGVDYASYYQGLWDCHGDQPDELSFQRGDLIRILSKEYNMYGWWVGELNSLVGIVPKEYLTTAFEVEER
In the case of B1, the “stoichiometry N” value is reported as 2.
